Assay results: PMC3280236

Biological target: Stat1, unphosphorylated, endogenous in 293 T cells (human (endogenous in 293 T)) (UniProt P42224)
UniProt P42224, sequence (P42224 whole entry): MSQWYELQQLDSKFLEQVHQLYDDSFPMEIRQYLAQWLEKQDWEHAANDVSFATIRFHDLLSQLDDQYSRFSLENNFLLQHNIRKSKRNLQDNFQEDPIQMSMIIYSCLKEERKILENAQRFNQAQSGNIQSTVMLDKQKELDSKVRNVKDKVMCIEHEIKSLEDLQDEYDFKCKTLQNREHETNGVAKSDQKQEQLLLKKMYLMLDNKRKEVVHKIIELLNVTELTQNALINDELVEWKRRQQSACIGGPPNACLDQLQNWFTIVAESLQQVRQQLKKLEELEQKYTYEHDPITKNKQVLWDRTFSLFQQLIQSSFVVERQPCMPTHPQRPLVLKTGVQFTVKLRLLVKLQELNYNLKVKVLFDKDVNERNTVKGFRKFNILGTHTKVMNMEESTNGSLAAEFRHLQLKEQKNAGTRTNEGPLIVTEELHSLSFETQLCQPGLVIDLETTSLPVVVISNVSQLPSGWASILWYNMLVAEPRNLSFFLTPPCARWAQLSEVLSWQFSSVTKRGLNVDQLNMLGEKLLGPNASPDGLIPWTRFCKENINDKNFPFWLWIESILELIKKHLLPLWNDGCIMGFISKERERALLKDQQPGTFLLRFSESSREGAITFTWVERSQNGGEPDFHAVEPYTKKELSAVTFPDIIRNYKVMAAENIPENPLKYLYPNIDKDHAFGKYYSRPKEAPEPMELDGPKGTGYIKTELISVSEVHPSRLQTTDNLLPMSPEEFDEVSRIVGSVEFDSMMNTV

Substance | percent of WT HPIV1-infected Vero cells positive for nuclear Stat1 after IFN-β (1,000 IU/mL, 60 min), confocal microscopy (untagged C proteins made by the virus; Stat1 of Vero cells) | percent of F170S HPIV1-infected Vero cells positive for nuclear Stat1 after IFN-β (1,000 IU/mL, 60 min), confocal microscopy (untagged C proteins made by the virus; Stat1 of Vero cells)
myc-tagged HPIV1 C′ protein, wild type (C′^WT-myc) (natural protein) | 2% | 
myc-tagged HPIV1 C′ protein with the F170S substitution (C′^F170S-myc) (natural protein) |  | 82%
